Reference: article PMC1262730, “Purification and kinetic studies of recombinant gibberellin dioxygenases” (BMC Plant Biology, 2005)

Substrate: C=C1C[C@]23C[C@@]1(O)CC[C@H]2[C@@]12CCC[C@@](C)(C(=O)O1)[C@H]2[C@@H]3C(=O)O
Assay: tritiated water release from [3H3]GA20, Michaelis-Menten fit (Origin)
Format: biochemical, Arabidopsis thaliana
Settings: labelled compound (possible tritium isotope effect), 4 mM 2-oxoglutarate, 0.5 mM FeSO4, 4 mM ascorbate, 4 mM DTT, BSA, catalase, 100 mM Tris-HCl pH 7.9, 30 °C

B1: AtGA3OX4 (Arabidopsis thaliana) (protein)
chain: MPSLAEEICIGNLGSLQTLPESFTWKLTAADSLLRPSSAVSFDAVEESIPVIDLSNPDVTTLIGDASKTWGAFQIANHGISQKLLDDIESLSKTLFDMPSERKLEAASSDKGVSGYGEPRISPFFEKKMWSEGFTIADDSYRNHFNTLWPHDHTKYCGIIQEYVDEMEKLASRLLYCILGSLGVTVEDIEWAHKLEKSGSKVGRGAIRLNHYPVCPEPERAMGLAAHTDSTILTILHQSNTGGLQVFREESGWVTVEPAPGVLVVNIGDLFHILSNGKIPSVVHRAKVNHTRSRISIAYLWGGPAGDVQIAPISKLTGPAEPSLYRSITWKEYLQIKYEVFDKAMDAIRVVNPTN
notes: pET32 Xa/LIC N-terminal poly(His)-thioredoxin fusion expressed in E. coli BL21 (DE3), tag cut at engineered thrombin site, Superdex 75
Km: 0.82 µM
